US20250161472A1 (BIOATLA, published 2025)
Substitutions are numbered along the chain they refer to. In names and notes the source's numbering stands.

B1: BAP048.7-humA03F01-CAB (#3948) (antibody, V domains shown)
VH: EVQLVQSGAEVKKPGESLRISCKGSGYTFTEYTMHWIRQSPSRGLEWLGGINTNNGGTGYNQKFKGRVTISADKSISTAYLQWSSLKASDTAMYYCAHGSLYSYGNSYFDYWGQGTLVTVSS
VL: AIQLTQSPSSLSASVGDRVTITCSATSSVSYMHWYLQKPGQSPQLLIYGTSNLASGVPDRFSGSGSGTDFTLKISRVEAEDVGVYYCQQRSSYPFTFGQGTKVEIK
notes: The sheet says 'mAb'; also called BAP048.7-humA03F01 (#3948); BAP048.7-A03F01
B2: BAP048.7-humC02D09-CAB )#3947) (antibody, V domains shown)
VH: QVQLVQSGAEVKKPGASVKVSCKASGYTFTEYTMHWVRQARGQRLEWIGGINTNNGGTGYNQKFKGRVTISADKSISTAYLQWSSLKASDTAMYYCAHGSLYSYGNSYFDYWGQGTLVTVSS
VL: B1 VL with L36Q, S42A, Q44R
notes: The sheet says 'mAb'; also called BAP048.7-C02D09; ROR2-CAB1-ADC (as conjugate)
B3: HC-N106E (antibody, V domains shown)
VH: EVQLQQSGPELVKPGASVKISCKTSGYTFTEYTMHWMKQSHRKSLEWIGGINTNNGGTGYNQKFKGKATLTVDKSSSTAYMELRSLTSEDSAVYFCARGSLYSYGESYFDYWGQGTLVTVSS
VL: QIVLTQSPAIMSASPGEKVTITCSATSSVSYMHWFQQKPGTSPKLWIYGTSNLASGVPARFSGSGSGTSYSLTISRMEAEDAATYYCQQRSSYPFTFGQGTKVEIK
B4: LC-F097D (antibody, V domains shown)
VH: B3 VH with E106N
VL: B3 VL with F97D
B5: LC-T096D (antibody, V domains shown)
VH: B3 VH with E106N
VL: B3 VL with T96D
notes: CPE single point mutant of parent VL 48.6-LC-WT
B6: LC-Y031D (antibody, V domains shown)
VH: B3 VH with E106N
VL: B3 VL with Y31D
notes: as for B5
B7: LC-Y031C (antibody, V domains shown)
VH: B3 VH with E106N
VL: B3 VL with Y31C
notes: as for B5
B8: LC-S030D (antibody, V domains shown)
VH: B3 VH with E106N
VL: B3 VL with S30D
notes: as for B5
B9: LC-S092V (antibody, V domains shown)
VH: B3 VH with E106N
VL: B3 VL with S92V
notes: as for B5
B10: LC-S092D (antibody, V domains shown)
VH: B3 VH with E106N
VL: B3 VL with S92D
notes: as for B5
B11: BAP048 conjugated to monomethyl auristatin E (BAP048 ADC) (other)
VL: B1 VL
VH: B1 VH with I37V, S40A, S42G, R43Q, L48M
modifications: MMAE drug conjugate (site, chain and linker not stated in Example 5)

The binders below were run against T1, human ROR2 (receptor tyrosine kinase-like orphan receptor 2) (human, UniProt Q01974 34-403, limits assumed) (assay: plate binding assay (ELISA per Example 1) on ROR2 at pH 6.0 and pH 7.4, 40 ng mAb, untreated and after 1 h at 60°C).
T1 construct: Antigen of the ELISA, SPR and pH titration assays; also called hROR2
T1 sequence (Q01974 34-403 limits assumed): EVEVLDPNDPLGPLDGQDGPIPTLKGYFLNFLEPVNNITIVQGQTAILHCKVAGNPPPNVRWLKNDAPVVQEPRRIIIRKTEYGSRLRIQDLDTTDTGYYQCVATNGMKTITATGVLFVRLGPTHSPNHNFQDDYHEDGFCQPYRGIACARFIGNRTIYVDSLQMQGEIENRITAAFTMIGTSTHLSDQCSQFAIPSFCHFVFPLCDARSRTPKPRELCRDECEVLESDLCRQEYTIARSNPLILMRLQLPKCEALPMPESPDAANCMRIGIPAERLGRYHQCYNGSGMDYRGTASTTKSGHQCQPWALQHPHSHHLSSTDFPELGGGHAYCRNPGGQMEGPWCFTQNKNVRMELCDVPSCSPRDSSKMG

**Q.** Does B1 bind?
**A.** binds

**Q.** Does B2 bind?
**A.** binds

What follows are binders tested against human ROR2 (receptor tyrosine kinase-like orphan receptor 2) (human) (UniProt Q01974) (assay: affinity ELISA on human ROR2, pH 7.4).
Sequence of human ROR2 (receptor tyrosine kinase-like orphan receptor 2) (human) (Q01974 34-403 limits assumed): as above

**Q.** B3 was tested. Which Affinity ELISA, pH 7.4 did it give?
**A.** 0.115

**Q.** For B4, which Affinity ELISA, pH 7.4 is on record?
**A.** 0.107

The binders below were run against T1, human ROR2 (receptor tyrosine …) (assay: affinity ELISA on human ROR2, pH 6.0).
Design: unit not given here

**Q.** Which “Affinity ELISA, pH 6.0” value does the source give for B5 here?
**A.** 0.755

**Q.** With B6 as the binder, how does the “Affinity ELISA, pH 6.0” value read?
**A.** 0.911

**Q.** For B7, which “Affinity ELISA, pH 6.0” value is on record?
**A.** 1.34

**Q.** With B8 as the binder, how does the “Affinity ELISA, pH 6.0” value read?
**A.** 0.733

**Q.** For B9, which “Affinity ELISA, pH 6.0” value is on record?
**A.** 1.23

**Q.** How did the “Affinity ELISA, pH 6.0” value turn out when B10 was run?
**A.** 1.13

Each binder was assayed against T1, human ROR2 (receptor tyrosine …) (assay: affinity ELISA on human ROR2, pH 7.4).
Design: unit not given here

**Q.** How did the “Affinity ELISA, pH 7.4” value turn out when B5 was run?
**A.** 0.474

**Q.** For B6, which “Affinity ELISA, pH 7.4” value is on record?
**A.** 0.405

**Q.** How did the “Affinity ELISA, pH 7.4” value turn out when B7 was run?
**A.** 0.7

**Q.** For B8, which “Affinity ELISA, pH 7.4” value is on record?
**A.** 0.252

**Q.** How did the “Affinity ELISA, pH 7.4” value turn out when B9 was run?
**A.** 1.18

**Q.** B10 was tested. Which “Affinity ELISA, pH 7.4” value did it give?
**A.** 1.12

What follows are binders tested against human ROR2 (receptor tyrosine kinase-like orphan receptor 2) (human) (UniProt Q01974) (assay: affinity ELISA on human ROR2, signal at pH 6.0 over pH 7.4).

**Q.** Which ratio, pH 6.0/7.4 does the source give for B3 here?
**A.** 1.95

**Q.** For B4, which ratio, pH 6.0/7.4 is on record?
**A.** 1.77

These binders were tested against human ROR2 (receptor tyrosine kinase-like orphan receptor 2) (human) (UniProt Q01974) (assay: affinity ELISA on human ROR2, pH 6.0).

**Q.** B3 was tested. Which Affinity ELISA, pH 6.0 did it give?
**A.** 0.224

**Q.** B4 was tested. Which Affinity ELISA, pH 6.0 did it give?
**A.** 0.19

What follows are binders tested against human ROR2 expressed on the surface of HEK293 cells (human, UniProt Q01974 34-943) (assay: cell-based or functional assay).
Sequence of human ROR2 expressed on the surface of HEK293 cells (Q01974 34-943): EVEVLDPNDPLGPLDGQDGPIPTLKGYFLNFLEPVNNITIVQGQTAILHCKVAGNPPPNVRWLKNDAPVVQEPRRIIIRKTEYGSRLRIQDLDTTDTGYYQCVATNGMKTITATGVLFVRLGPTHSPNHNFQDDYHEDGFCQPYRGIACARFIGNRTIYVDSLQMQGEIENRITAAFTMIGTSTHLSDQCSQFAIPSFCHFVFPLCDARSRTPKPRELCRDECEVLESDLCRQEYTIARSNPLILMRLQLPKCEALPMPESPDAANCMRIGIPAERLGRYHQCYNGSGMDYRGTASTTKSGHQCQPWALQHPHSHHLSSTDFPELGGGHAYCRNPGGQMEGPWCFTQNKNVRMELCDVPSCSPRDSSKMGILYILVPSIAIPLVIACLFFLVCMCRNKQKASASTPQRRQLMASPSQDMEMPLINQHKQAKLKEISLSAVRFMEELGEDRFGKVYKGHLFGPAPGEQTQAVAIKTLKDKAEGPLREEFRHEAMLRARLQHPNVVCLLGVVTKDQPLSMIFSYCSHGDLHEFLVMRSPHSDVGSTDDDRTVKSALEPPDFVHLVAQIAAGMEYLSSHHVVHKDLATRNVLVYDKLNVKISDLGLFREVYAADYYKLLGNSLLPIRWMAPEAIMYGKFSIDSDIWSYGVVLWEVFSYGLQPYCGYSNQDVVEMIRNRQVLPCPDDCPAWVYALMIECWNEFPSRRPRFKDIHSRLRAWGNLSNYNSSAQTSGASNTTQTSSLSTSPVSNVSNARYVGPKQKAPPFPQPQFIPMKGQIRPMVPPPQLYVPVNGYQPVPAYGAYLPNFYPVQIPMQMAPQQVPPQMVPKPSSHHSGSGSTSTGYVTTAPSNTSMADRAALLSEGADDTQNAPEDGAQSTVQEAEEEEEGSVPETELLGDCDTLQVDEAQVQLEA

**Q.** B11 was tested. Which “cell killing, difference of effective concentration between pH 7.4 and pH 6.0” value did it give?
**A.** ~10 fold
